In US20210340232A1, “MONOCLONAL ANTIBODIES AGAINST HUMAN DICKKOPF3 AND USES THEREOF” (Board of Regents, The University of Texas System, priority 2018, published 2021):

Columns and labels:
[1] = tested on: BxPC3 + HPSC orthotopic tumors; test: Orthotopic co-injection BxPC3 + HPSC nude mouse model of PDAC; format: in vivo; settings: 5 mg/kg i.p. once every 5 days, vs PBS or control mAb
Method: (§1) HPSCs and BxPC3 cells were treated with DKK3 mAb clones JM6-6-1 and JM8-12-1 or isotype control mAb or PBS. (FIGS. 5A-B) HPSC apoptosis and migration as measured by FACS and Transwell migration assay at 48 hours. (FIG. 5C) BxPC3 migration in response to rhDKK3 10 μg/ml as measured by Transwell migration assay at 48 hours. (FIG. 5D) BxPC3 resistance to gemcitabine 100 μM as measured by MTS proliferation assay at 6 days. HPSC-CM, pancreatic stellate cell conditioned media, 10 μg/ml. The orthotopic co-injection BxPC3+ HPSC model of PDAC was used to test the efficacy of DKK3 mAb clones JM6-6-1 or JM8-12-1 (5 mg/kg i.p. once every 5 days). (FIG. 5E) Overall tumor progression was measured every 3-4 days by IVIS imaging. (FIG. 5F) Metastatic tumors in the peritoneal cavity after removal of the primary pancreatic tumor are shown by IVIS imaging. (FIG. 5G) Kaplan Meier survival curve showing mice treated with DKK3 mAb clone JM8-12 (right-most line), control mAb (middle line), or PBS (left-most line). (FIG. 5H) KPC mice (P48-Cre; Kras LSL-G12D;Trp53fl/fl) with either wild type DKK3 (solid lines) or deficient in DKK3 (“DKK3-KO,” dashed lines) were treated with DKK3 mAb JM6-6-1 (5 mg/kg i.p. once every 5 days), PBS or control mAb. Kaplan Meier survival curve is shown with hazard ratios (Log-rank test). *p<0.05, **p<0.01, ***p<0.001, ****p<0.0001 vs. control Ab.
An orthotopic nude mouse model of PDAC using BxPC3 cancer cells labeled with firefly luciferase (BxPC3-FL) co-injected with HPSCs has been previously described (Hwang et al., 2008). Mice received intrapancreatic injections of BxPC3-FL (1×10^6 per mouse) with HPSC-shControl or HPSC-shDKK3 in a tumor-to-stroma ratio of 1:0 or 1:3 in 50-μL of HBSS and tumor growth was monitored using IVIS imaging (Hwang et al., 2008). In addition, a syngeneic immunocompetent DKK3 null model was used, provided by Dr. C. Niehrs (Barrantes Idel et al., 2006), that was injected with murine PDAC cells (termed “KPC cells”) isolated from tumors arising in a GEMM of PDAC (Pdx1-Cre; Kras^LSL-G12D;Trp53^R172H/+) (Hingorani et al., 2005; Hingorani et al., 2003) and labeled with luciferase.
The efficacy of DKK3 mAb was tested in vivo using the previously described orthotopic co-implantation nude mouse model of PDAC with human PSCs mixed with luciferase-labeled BxPC3 cancer cells (1:3 tumor:PSC ratio). Mice were treated with either phosphate-buffered saline (PBS), isotype control mAb, or DKK3 mAb (clone JM6-6-1; 5 mg/kg i.p. once every 5 days) and tumor growth was followed with IVIS imaging. […] Tumors in the PBS and control mAb groups grew rapidly from day 22 onward, with an 8-fold increase in the luciferase signal.

BxPC3 orthotopic tumors = test: Orthotopic BxPC3 tumors without HPSCs in nude mice; format: in vivo, mouse; settings: BxPC3 alone; 5 mg/kg i.p. once every 5 days; vs PBS or isotype control mAb
Method: FIGS. 11A-C. DKK3 expression in autochthonous model of PDAC and effects of DKK3 mAb on cell surface binding of DKK3 and orthotopic model. (FIG. 11A) DKK3 expression was measured by qPCR in pancreatic tumors from P48-Cre; Kras LSL-G12D;Trp53fl/fl and P48-Cre; Kras LSL-G12D;Trp53fl/+ mice that are either wild type DKK3 or heterozygous or homozygous DKK3-null. Relative expression of DKK3 mRNA in DKK3+/− hetero mice is 53% of DKK3^+/+ mice. (FIG. 11B) DKK3 cell surface binding was assessed by incubating BxPC3 or L3.6p1 cells with His-tagged rhDKK3 (10 μg/ml) with or without JM6-6-1 (70 μg/ml) and positive cells were sorted by flow cytometry. (FIG. 11C) Mice bearing orthotopic BxPC3 tumors were treated with DKK3 mAb JM6-6-1 (5 mg/kg i.p. once every 5 days). Overall tumor progression was measured every 3-4 days by IVIS imaging.
An orthotopic nude mouse model of PDAC using BxPC3 cancer cells labeled with firefly luciferase (BxPC3-FL) co-injected with HPSCs has been previously described (Hwang et al., 2008). Mice received intrapancreatic injections of BxPC3-FL (1×10^6 per mouse) with HPSC-shControl or HPSC-shDKK3 in a tumor-to-stroma ratio of 1:0 or 1:3 in 50-μL of HBSS and tumor growth was monitored using IVIS imaging (Hwang et al., 2008). In addition, a syngeneic immunocompetent DKK3 null model was used, provided by Dr. C. […]

KPC model of PDAC = test: Survival of KPC mice (P48-Cre; Kras LSL-G12D;Trp53fl/fl) with wild type DKK3; format: in vivo, mouse
Method: as §1
Two GEMMs of PDAC that differ in the pancreas-specific promoter to target oncogenic Kras expression (Hingorani et al., 2005; Hingorani et al., 2003) were used in the experiments to evaluate the effect of DKK3 neutralizing mAb (Pdx1-Cre; Kras^LSL-G12D; Trp53^R172H/+ and P48-Cre; Kras^LSL-G12D; Trp53^fl/fl). To evaluate the effects of genetic ablation of DKK3 on pancreatic cancer development, DKK3-null mice were crossed to P48-Cre; Kras^LSL-G12D;Trp53^R172H or P48-Cre; Kras^LSL-G12D; Trp53^fl/fl mice (Hingorani et al., 2005; Hingorani et al., 2003), and the progeny were monitored until they were moribund. Tissue and blood samples were collected after the mice were euthanized. […]

[2] = JM6-6-1 5 mg/kg i.p. once every 5 days

B1: JM6-6-1: monoclonal antibody against human DKK3; heavy chain variable SEQ ID NO: 19, light chain variable SEQ ID NO: 20 (antibody, V domains shown)
VH: EVKLVESGGGLVKPGGSLKLSCAASGFTFTIEYMAWIRQTPEKRLEWVASISSGGDDIYYADNVKGRFTISRDNAKNTLYLQMSSLKSEDTAIYYCSRSLSDWGQGTTLTVSSAKTTPPSDYPLA
VL: MTQTPLSLPVSLGDQASISCRSSQSILHSNGHTYLEWYLQKPGQSPKLLIYKVSNRFSGVPDRFSGSGSGTDFTLKISRVEAEDLGVYYCFQGSHVPFTFGSGTKLEIERADAAQ
B1 was tested, and the “tumor growth by IVIS imaging” value ([1]; day 22 until day 33) was “significant inhibition in tumor growth”, the “lower volume of metastatic disease in peritoneal cavity by luciferase signal” value [1] was 6.5 fold and the “tumor response without HPSCs” value (BxPC3 orthotopic tumors) was “no significant change”. The “hazard ratio (HR) compared to PBS or isotype control mAb” value (KPC model of PDAC; [2]) was 0.24, the “increase of median survival compared to PBS or isotype control mAb” value (KPC model of PDAC; [2]) was 43% and the median survival (KPC model of PDAC; KPC mice with wild type DKK3) was 61.5 days.
